Consider one molecule from patent US20230002481A1 (Chugai, published 2023).

The target in this assay is T1, recombinant human C1r2s2 tetramer (human, UniProt P09871 16-688; P00736 18-705).
T1 construct: Heterotetramer of two C1r and two C1s chains, co-expressed in FreeStyle293-F cells; also called human C1r2s2s
T1 chain 1: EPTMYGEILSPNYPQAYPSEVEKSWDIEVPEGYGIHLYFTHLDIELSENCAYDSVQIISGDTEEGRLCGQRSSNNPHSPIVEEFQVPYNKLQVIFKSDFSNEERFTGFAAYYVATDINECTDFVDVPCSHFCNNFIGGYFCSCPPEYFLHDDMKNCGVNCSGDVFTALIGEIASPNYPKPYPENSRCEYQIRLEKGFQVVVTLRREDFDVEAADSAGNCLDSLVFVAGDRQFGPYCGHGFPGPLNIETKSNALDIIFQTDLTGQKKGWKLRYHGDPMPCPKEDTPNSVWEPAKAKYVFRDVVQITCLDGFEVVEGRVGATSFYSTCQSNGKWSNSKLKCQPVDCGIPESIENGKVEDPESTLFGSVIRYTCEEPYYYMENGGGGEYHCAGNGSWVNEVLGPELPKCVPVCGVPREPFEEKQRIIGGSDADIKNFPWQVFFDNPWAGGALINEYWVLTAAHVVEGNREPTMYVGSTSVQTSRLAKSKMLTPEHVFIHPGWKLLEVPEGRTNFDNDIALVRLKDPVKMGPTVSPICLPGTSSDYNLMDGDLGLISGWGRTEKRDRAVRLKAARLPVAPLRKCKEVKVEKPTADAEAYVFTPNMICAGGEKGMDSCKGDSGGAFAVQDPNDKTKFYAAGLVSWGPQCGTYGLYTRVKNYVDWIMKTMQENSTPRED
T1 chain 2: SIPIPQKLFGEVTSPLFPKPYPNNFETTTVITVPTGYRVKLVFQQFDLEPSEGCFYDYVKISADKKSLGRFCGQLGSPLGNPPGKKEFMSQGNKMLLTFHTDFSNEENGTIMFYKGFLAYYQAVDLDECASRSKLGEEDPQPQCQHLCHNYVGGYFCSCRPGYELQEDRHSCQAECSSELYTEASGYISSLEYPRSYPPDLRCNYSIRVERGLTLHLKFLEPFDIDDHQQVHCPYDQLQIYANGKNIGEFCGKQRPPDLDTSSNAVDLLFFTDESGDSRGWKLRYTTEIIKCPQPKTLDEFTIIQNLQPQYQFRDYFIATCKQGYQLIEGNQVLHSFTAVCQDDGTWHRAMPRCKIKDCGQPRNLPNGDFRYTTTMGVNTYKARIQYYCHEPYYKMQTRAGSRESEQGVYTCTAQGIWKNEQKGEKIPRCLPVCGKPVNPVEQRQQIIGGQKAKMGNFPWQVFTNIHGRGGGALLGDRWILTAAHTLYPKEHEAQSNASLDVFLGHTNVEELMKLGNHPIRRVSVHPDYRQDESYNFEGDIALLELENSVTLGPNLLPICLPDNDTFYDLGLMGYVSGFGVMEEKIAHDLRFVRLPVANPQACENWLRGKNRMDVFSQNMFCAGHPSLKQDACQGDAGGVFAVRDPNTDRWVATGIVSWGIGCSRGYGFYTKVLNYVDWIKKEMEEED
The assay can be described thus: SPR (Biacore), antibody captured on ProA/G, antigen as analyte, 37 C, pH7.4, 1.2 mM CaCl2; pH 7.4. On the procedure: The kinetic parameters of anti-C1s antibodies against recombinant human C1s (as described in PCT/JP2018/042054), human C1r2s2, and cyno C1r2s2 His/Flag (also referred as cyno C1r2s2 in the Table and Figures) were assessed at pH7.4 and pH5.8, at 37 degrees C. using BIACORE (registered trademark) T200 instrument (GE Healthcare) or BIACORE 4000 (GE Healthcare). ProAG (Pierce) was immobilized onto a CM4 sensorchip using amine coupling kit (GE Healthcare) according to the recommended settings by GE Healthcare. Antibodies and analytes were diluted into the respective running buffers, ACES pH7.4 and pH5.8 (20 mM ACES, 150 mM NaCl, 1.2 mM CaCl₂, 1 mg/ml BSA, 1 mg/ml CMD, 0.05% Tween 20, 0.005 w/v % NaN₃). Each antibody was captured onto the sensor surface by ProA/G. Antibody capture levels were typically 100-200 resonance units (RU). Then, recombinant C1s was injected at concentrations of 25 and 50 nM followed by dissociation at pH7.4 and pH5.8. The surface was regenerated using 10 mM Glycine-HCl, pH1.5. Kinetic parameters at neutral pH conditions and acidic conditions were determined by fitting the sensorgrams with 1:1 binding model using BIACORE (registered trademark) T200 Evaluation software, version 2.0 (GE Healthcare) or BIACORE 4000 Evaluation software. The dissociation rate at pH5.8 (after dissociation at pH7.4, indicated as pH5.8* in TABLE 2) was determined by processing and fitting data using Scrubber 2.0 (BioLogic Software) curve fitting software. The association rate (ka), dissociation rate (kd), binding affinity (KD) at pH7.4 and pH5.8 condition, and dissociation rate (kd) at pH5.8* condition of the antibodies are listed in TABLE 2. Some kinetic parameters of COS0098pHv1 in acidic condition were not correctly calculated because of its weak binding response.
Also, to observe the cross-reactivity of anti-C1s antibodies against human C1r2s2 and cyno C1r2s2 (cyno C1r2s2 His/Flag), BIACORE (registered trademark) kinetics analysis was performed.
On the technique in general: In SPR one partner is held on a chip, and binding of the other changes the refractive index at the surface.

B1: COS0098bb (antibody, V domains shown)
VH: QSVEESGGRLVTPGTPLTLTCTVSGFSLTKYTVSWVRQAPGKGLEWIGIINTGGSAYYATWAKGRFTFSKTSTTVDLQITSPTTEDTATYFCARGNGDTDYTNLWGPGTLVTVSS
VL: QVLTQTPSSVSEPVGGTVTINCQASENIYSALAWYQQKPGQPPKLLIYGASNLESGVPSRFKGSGSGTQFTLTISDLECADAATYYCQQYYFTSSTFGGGTKVEIK
notes: Anti-C1s rabbit antibody, parent of COS0098pHv1; the antibody was captured by ProA/G; also called anti-C1s antibody COS0098bb
Usually Kd stands for the equilibrium constant for the complex coming apart. For orientation: koff means the first-order rate constant of dissociation. By kon is commonly meant the rate constant with which the complex forms. Regarding B1, the Kd was 0.213 nM, the koff was 0.0002 s⁻¹ and the kon came to 936000 M⁻¹ s⁻¹.
